Measured values as given in the DeepSol protein solubility set.

Experiment: soluble on expression in E. coli; label from the status in PepcDB or PDB records

Row | Sequence | soluble on expression in E. coli
1 | MPENSQPTTTEKGSEYLEQLANEAEELRKKLDQERHKLNDIPIQQAAERLDVMGALGVKQRRILKGHVGKVLCMDWSLDKRHIVSSSQDGKVIVWDGFTTNKEHALTMPTTWVMACAFSPSSQMIACGGLDNKCSVVPLSFEDDIIQKKRQVATHTSYMSCCTFLRSDNLILTGSGDSTCAIWDVESGQLIQNFHGHTGDVFAIDVPKCDTGNTFISAGADKHSLVWDIRSGQCVQSFEGHEADINTVRFHPNGDAFATGSDDATCRLFDLRADRQVCVYEKESILFPVNGVDFSLSGRILFAGYGDYRVGVWDSLKCARHSVLYGHENRISCLRTSPDGTAVCSASWDCTIRIWA | not soluble
2 | MPERLSRMSKKHKMVWGTLNGLDDWDYNVFELQAAIDGDDINCKNDQSGCGALFITMYALVVKYGFLRKFEINERIFLNWLSAVEGGYHANPYHNSMHAADVLHITHYLLSKGGLAELCKLNDRQVLAALFAAAIHDYNHPGINNNFSILTQTYNATLYNDRSVLENMHVASVFELMRNPALNILACFSEEHWRDFRNTVIDMVLATDMSLHEKYMTQFKRRLSEKRPFTEDCDQNLALAMALKLADISNCCRPLPLYLKWSERVSDEFYTQGDRERSLGMSCSPFMDRQTPMIAEGQTSFINYIFIPFLEVMAEFLPSMGFTLGLAAVCKSHRLVG | soluble
3 | MPEYSSVTGLEGVKFAPLKKENGFYVATKIIDYPYAINAKVNTETSTEKQYADNKLVDMAVTTGSTKLELEMRDLPMEILEELFGIEETDGIYMFKKNVIAPWVAMSFYGPKANGKNRHVGLVKGRFSLPDDEWKTKEEKTDFQTVKLSAEFMEREQDNAYKVLADEDAPNFNLDKFYEKVFGNAYKNPDSGSDNKSSVDIGKTVLEHHHHHH | soluble
4 | MPFHYPKLYMDHRGNMSTSSSLTSSTTATSSSSTGGVRKQILTLKPKQPNGYVQHLEIKAKESSQSSVISGGVPVPVTLLELKKKDRSEKNVVTNLKYRKPTANHHLDSVHSSSEHHHHHHLSLSSLTRRPGSPSSSGYETDSLVDQENCDVFSSLFNSSLSYQSALDHHHQFHELDMLHSHPIWSPQLPNNNTSLMMGSNSYYLQ | not soluble
5 | MPFILRRERSILKTALPPIRDDAVLCPLLPFQSAQLKEVERKHHAGTLSGNPHIQYRKILLHPHTTQSFLHVDEEVVCTSGKLLVLDFVMRFLQRTQHKLLVVCGWTLILDIVETLCGMRGIPYVRLDGRTMVKQREANIRGFNRSVANGNGVVEEAGGGGGDAEGDAATSRPRRNSRQRASTDTTGGPSPNADGRGDEEDGSSLPLATPCCFLISKVAGGAGLNLQAADTVFLLDVDYNPQRDAQALSRVYRVGQSKEVRVFRLIIDHAIEHDIVAIHEAKDDLGRAVVQAGCYDLHSSAHEREAALQGIFRAGALSRLSQQWTTTTRTADDTQGDSGEEEREEAVPSPCASFPPMTFPRCDLKDEGGADSDTEEVGKASPSPAQKSTDLHCVFISGGSGGARAMSSAPRKQVKTEMESEGSGRLADAADGEISVAVAGDVNPQCALLPHRRRRRHISFKLEKDDSEEGGGKAGRGDPAADPAGNARKLANPATAPLLFTAPPPHPSMTAAEVGEAVAAATARVQAPAEHRLAMRERLEEVLLRRKGERHVLEDMFRSV | soluble
6 | MPFIYRRRVQFYETDAQGIVHHSNYFRYFEEARGEFLRSKGFPYSKMRDMGLEVVLLNAYCEYKKPLFYDDVFEVHLNLEELSRFTFTFSYIVFKEDIAVAKANTKHCMVKNGKIVSIPKEVLEVLKD | soluble
7 | MPFLPPLTPPTELYVGIQLPNPISILVNYLPVRQTPIETLRNLVYSCDINTLAIDEFMTWPSLLQPESTFRPYFELLVERGSLKVFAKRATS | not soluble
8 | MPGAAAKGSELSERIEGFVETLKRGGGQRSSEDMARETLGLLRRLITDHHWNNAGDLMDLIRREGRRMTAAQPSETTVGNMVRRVLKIIREEYGRLHGRSDESDQQESLHKLLTSGGLSEDFSFHFAPLKANIIEAINELLVELEGTMENIAAQALEHIHSNEVIMTIGYSRTVEAFLKEAARKRKFHVIVAECAPFCQGHEMAVNLSKEGIETTVMTDAAIFAVMSRVNKVIIGTKTILANGSLRAVAGTHTLALAAKHHSTPLIVCAPMFKLSPQFPSEEDSFHKFVAPEEVLPFTEGDILEKVSVHCPVFDYVPPDLITLFISNIGGNAPSYIYRLMSELYHPDDHVL | not soluble
9 | MPGAPSFIALDWGTSSLRAWRFGESPNPQEKREFPWGIMKLPSQAATREDAFHDTFLRVCGDWLAQTPCPVLACGMLGSAQGWQSAAYLPCPVTLEGLAKQLTPVIHQQQTMLHIIPGVIKEGEMPEVMRGEETQIFGAISMEPALQNAIHQGMPVLIGLPGTHAKWAVVENNTITDFRTFMTGELFDVLSRHSILGATMHPGDEPHWDAFTHGLTAAQEHHQTGLLSTLFSTRSRLLTSNLTSSSQGDYLSGLLIGHELCGLASSLLRDLPATTPIALIGSANLNSRYSQAFSHVFPGRQIHAIPNATEQGLWRIAHAAGLLSTNARECTHAI | not soluble
10 | MPGGVSSPVRAFKSVGGQPIVFDHVKGAHIWDVDGNQYIDYVGSWGPAIVGHAHPEVIDALHAALEKGTSFGAPCLLENILAEMVIAAVPSVEMVRFVNSGTEACMAVLRLMRAYTQREKVIKFEGCYHGHADMFLVKAGSGVATLGLPDSPGVPKATTAATLTAPYNDLEAVSRLFEQYPNDIAGVILEPVVGNAGFIPPDAGFLEGLRELTKQYGALLVFDEVMTGFRIAYGGAQEKFGVTPDLTTLGKVIGGGLPVGAYGGRAEIMKMVAPAGPVYQAGTLSGNPLAMTAGIKTLEILSRPGSYEHLDRITGKLVQGLLDAAREFGHEVCGGHISGMFGLFFTAGPVTNYEQAKQSDLKKFAAFHRGMLEQGIYLAPSQFEAGFTSLAHTEADIERTIAAARTVLSQL | soluble
11 | MPGSLPPNGESSWPKDVGIVALEIYFPSQYVDQEELEKFDGVSAGKYTIGLGQSKMGFCSDREDINSLCLTAVQRLMERNNLSYDCIGRLEVGTETIIDKSKSVKTVLMQLFEESGNTDVEGIDTTNACYGGTAALFNAVNWVESSSWDGRYALVVAGDIAVYATGSARPTGGAGAVAMLVGPNATLVFERGLRGTHMQHAYDFYKPDMESEYPVVDGKLSIQCYLSALDHCYSTYRKKIHAQWQKEGTEKPFTLNDFGFMIFHSPYCKLVQKSFARLLVNDFISDSNPNTESGVYVGLDSFRDLKLEETYFDRDVEKAFLKASTELFNEKTKTSLLVSKENGNMYTPSVYGCLASVLAQYSPQQLAGQRIGVFSYGSGFAATLYSLRVSQDAMPGSSLDKLTSSLSDLKARLDSRKNVSPSIFADNMKLREDTHHLANYVPQGSVDDLFPGTWYLVRVDEKHRRFYARSSLMRDGPLDAAPESVHSSTANEHFPSPAKKVPRIPPAAEAEPISVTNGGH | soluble
12 | MPGTRFSGKVVLISGSSKGIGQATAVKFAAEGAKIVLNGRSADDVEKTRKLCMEVGAKPWDLLPTVGDITNEDFVKMMVNTVIHNFGKLDILINNAGTLEVDMTGKEGWEMGVDVMDRSWNSNFKSVLMLTQAAMPHLIKTKGDIVNVSTFLSSGPIGVMSMPYYAVPKAALDQMSRSMAHEYMLKGVRLNTVNPGLVSTSFFARLPGVGDDNARKMENYVQSKTEYIPLGRVCQASDVAETILFLADRKVSECIVGQSIIIDGGSRLCCNIDMSDFKEQMAKA | not soluble
13 | MPGVKVKETESFELALKKFKKQCEKAGILSEVRKREHYEKPSIKRKKKAIAARKRAMKKQRKMMDLEHHHHHH | not soluble
14 | MPHTGSQHTLQATPKTAQHTGAQKAPEQAIALKKEQQLKNQEGATSHRKAHTEGCHTQKTRMSADKAGLRHRQGSGEVRARTASTRVEGECSSDGVVMMFCMPARGEEEKASGEARGEDVGSSRESRQGTAHKSTCMHTEAASLQKAGEIGKVEDAKT | not soluble
15 | MPIPKSAKSDYTKEQKDLVGNICQCKDFYKILNVDKKASPDEIRIAFRKRIREVHPDKCKHPSATEASKVVNNAFSLLMDPAKRRQYDLQNAETSNENLYKRCNRNKNQRKQEYSNTQRQNHKKSEPSNGKRNEQNSSFKQDHNSKNHQSNHQKTKNKKSNPYSNQNNFNNTRKDYREEKSGFSWNTGSA | not soluble
16 | MPISRYYDVKRDEKGERYLEPYVTGFLLLRLPLLNKGTAFTEEERRLLGLEGLLPPHVHTLEEQKERVYRRYRLIQSPLEKHIYLRHLQDRNEVLFYALVVDHLEEMLPILYTPTVGEAVREFSHIYRYPRGFTASTKNIDRIDEALQNVPLEDVRLIVATDSSAILGIGDQGYGGMAISIGKLTLYTAAGGVGPDKTLPVELDVGTDREDLLKDPLYLGVRHRRLRGEEYFRFLDRFVEAVRRRYPKALIQWEDFAKETAFQVLERYRKVIPSFNDDIQGTGAVALAGVLSACRLKGERLSDQVVVVYGAGAGGIGVAWALVEGMKREGLSEEEAKARVLVLDSKGLLVEGRSMEDYKRPYAQRPERLWGWRFAGEYPNLLETITNARATVLLGLSGQAGSFTEPVVRAMLANTPRPVIFPLSNPTSATEALPDDLVYWTEGRALVAAGSPFPPVGFKGRTVPIGQGNNAFVFPGLGLGAVLSRAREVTDGMVLEAAYALYDYTREHFPERIYPPVGRLREVSPYVAARVMQRALEEGVAEEARVQGLTLEALLDFVKSRFWEPRYLPYRPAPVI | soluble
17 | MPKAKGKTRRQKFGYSVNRKRLNRNARRKAARGIECSHIRHAWDHAKSVRQNLAEMGLAVDPNRAVPLRKRKVKAMEVDIEERPKELVRKPYVLNDLEAEASLPEKKGNTLSRDLIDYVRYMVENHGEDYKAMARDEKNYYQDTPKQIRSKINVYKRFYPAEWQDFLDSLQKRKMEVELEHHHHHH | not soluble
18 | MPKELWPLTGSRLEGSSMADRRRQRRTSKAGVGGRRVEYKRVPLGFIKAIVKTGHVVVEPSEKVRRNPPRGRFQVLLAGDGEVGYVSDVIGPINSPFIVVRVRERGVIEKLSPGAELIMLVPPKKPPRKGAPRRGSSRGRRGFKKGKARG | soluble
19 | MPKIISKRKFNILRKTKEEIFSQIVYTKKRNGLHKAAKEYYFKDKDFTIIEDQQDRPDKPEELDTPDIPKPPKPPKGPDQPEEPGQPGGPDDPNSGNKKMPKPDEFVTHRQLQEFKKDLLVELHEIFPTKPELKRVEEKVDVLFELQKAQGEQIRIQGEQIKELKVEQKAQGETLQLILQTLQKMNDRLDKIEGKMDKMESRMDKMETRLDKLESKLEHHHHHH | not soluble
20 | MPKITVYTGKEVLQIDAKEGSSLLDILAENSLYVEAPCGGKGICGKCKVAVKKDGKPYLENITKEEKRLLTSDELQKGIRLCCNLKVFESLEVFLPHSKIGAKILSGLYTLEHHHHHH | not soluble
21 | MPKSEPRYLTIYNQLKNQITSGTLTANEQLPTELQLAKAYNVSRITSKRALTELESQGLIYRKQGSGSFVQPTDQPKTNKQLLLVLPFPTDAGLGDYASGVSLAASAHHYQAVTMDSASFFNLSAKEIHENYAGVIYLPQDLYQEAERIYQLKLAQVPVVILDKTLPALELPVVTADNFSGGQIATDHLLQLGHQQILFYAQRNNTVLPSSVYERYFGYLTALNQQHVTPVTALADLPTLNQFSTNDWLTYLADHQITAIVVENDLTAIKLMNTLRKVDPKIWQRLSIVGFDNIQAASLTYPSLTTVAQDFKGMGTKAVSLLLKTPVQPTTVRLPVQLIQRDSTQPFQPISKEK | not soluble
